Experimental findings from the nanobody polyreactivity screen of Harvey et al. (2022) are described below.

This series can be described thus: yeast display, Sf9 membrane polyspecificity reagent, FACS + sequencing; frameworks hold sequencing errors. The gist of the method:
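Nanobodies came from a synthetic yeast display library in Saccharomyces cerevisiae BJ5465, induced with galactose for 36–48 hours and stained for 1 hour at 4 °C with 10% biotinylated, detergent-solubilized Sf9 membrane reagent. Cells were enriched on streptavidin microbeads and then FACS-sorted, with low and high (top ~1%) gates set on anti-HA fluorescence for expression and streptavidin fluorescence for reagent binding. Each polyreactivity label reflects the gate a clone came from. Genes were amplified by colony PCR, sequenced by MiSeq 2 × 250 and filtered by CDR length.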
“QLQLVESAGGLVQAGGSLRLRCAASGSTFSSYAMGWYRQAPWKERELVADITSSGGSTYYADSVKGRFTISRDNAKNSVYLQMNSLTPEDTAVYYCAADDVIFWLYYYWGQGTQVTVSS”: the “polyreactivity (PSR sort gate)” value is given as “low polyreactivity”.
The entry for “QVQLVESGGGLVQAGGSLRLSCAASGRTLTQNAMGWYRQAPGKERELVATISWTAGSTYYADSVKGRFTISRDNAKNTVYLQMNSLKPEDTAVYYCAAVVFYSIYDYWGQGTQVTVSS” is “low polyreactivity”.
The entry for “QVQLVESGRGLVQAGGSLRLSCAASGSTFLDYAMGWYRQAPGKERELVAAINGSGSRTYYADSVKGRFTISRDNAKNTVYLQMNRLKPEDTAVYYCAHEYGYWGQGTQVTVSS” is “low polyreactivity”.
The same measure for “QVHLVESGGGLVQAGGSLRLSCAASGAMGWYRQAPGKERELVAAISSGNTNYADSVKGRFTISRDNAKNTVYLQMNSLKPEDTAVYYCAAEQPYGQKNTGLGVIDLDYWGQGTQVTVSS”: “low polyreactivity”; for “QVQLVESGGGLVQAGGSLRLICAASGITFSTYTMGWYRQAPRKEREFVAAISSRGGSTYYADSVKGRFTISRDNAKNTAYLQMNRLIPEVTAVYYCAAALVAPFDYWVQGTQVTVSS”: “high polyreactivity”; for “QVQLVESGGGLVQAGGSLRLSCAPSARTFVYNAMGWYRQAPGKERELVAAIDGGGDRTYYADSVKGRFTISRDNAKYTVYIQMYSLKPEDTAVYYCARDPGDTYYYSYPEGDYWGQGTQVTVSS”: “low polyreactivity”.
For “QVQLEESGGGLVQAGGSLRLSCAASGLTFAQNAMGWYRQAPGKEREMVAAITSSGGRTYYADSVKGRFTISRDNANNTVYLQMNSLKPEDTAVYDCNVRYYRYGYTYGYWGQGTQVTVSS”, the “polyreactivity (PSR sort gate)” value is “high polyreactivity”.
The same measure for “QVQLVESGGGLVQAGGSLRLSCAASGRTFQTYAMGWYRQAPGKERELVASINWSDGSTYYADSVKGRFTISRDNAKNTVYLQMNSLKPEDTAVYYCAADSSAWLYDYWGQGTQVTVSS”: “low polyreactivity”; for “QVQLVESGGGLVQAGGSRRLSCAASGSIFPQYAMGWYRQAPGKERELVAAITWSGSRTRYADSVKGRFTMSRDTAKNTGYLQMNSLKPEDTAVYDCAARFNGQTYYYWGQGTQVTLSS”: “high polyreactivity”.
Turning to “QVQLVESGGGLDQAGGSLRLSCAASGRTFTHNVMGWYRQAPGKEMELVAGISSTGGSTYYADSVKVRFTISRDNAKNTVYLQMNSLKPEDTAVYYCAKQRRSFYDFFHYDYWGLGTQVTVSS”, the “polyreactivity (PSR sort gate)” value is given as “low polyreactivity”.
The same measure for “QVQLVESGGGLVQAGGSLRLSSAASGFTFRRYAMGWYRQAPGKERELVAAISIRGGRTYYADSVNGRFTISRDNAKNTVYLQMNSLKPEDTAVNYCAADGVYALDVESDYWGQGTQVTVSS”: “high polyreactivity”; for “QVQLVESRGGLVQAGGSLRISCAASGNIFLDYVMGWSRQAPGKERELVAAINSGGSTYYADSVKGRFTISSDNAKNTVYLQMNSLKPEDTAVYYCAADDYYKFDYWGQGTQVTVSS”: “low polyreactivity”; for “QGQLVESGGGLVQAGGSLRLSCAASGFIFSIYAMGWYRQAPGKDRELVAGIDNGGGTYYADSGKGRFTISRDNAKNTVYLQMNRLKPEDTAVYYCAADTYSIGELYDYWGQGTQVTVSS”: “low polyreactivity”.
The same measure for “QVQLVESGGGLVQAGGSLRLSCAASGTNGMGWYRQAPGKERELVAAISGSGGSTYYADSVKGRFTISRDNAKNTVYLQMNSLKPEDTAVYYGAADSIQYTARPYDYWGQGTQVTVSS”: “low polyreactivity”; for “QVQLVESGGGLVQAGGSLRLSCAASGGTFRKYAMGWYRPAPGKERELVATISNGGSTYYADSVKGRFTISRDNAKNTVYLQMNSLIPEDTAVYYCAARFDYWVSGGLVKYNYWGQGTQVTVSS”: “high polyreactivity”; for “QVQLVESGGGLVQAGGSLRLSCAASGRILDYNAMGWYRQAPGKERELVADISGSGDSTYYADSVKGRFTISRDNAKNTVYLQMNSLKPEDTAVYYCNRQTVRPHSRAGYDYWGQGTQVTVSS”: “low polyreactivity”.
The entry for “QVQLVESGGGLVQAGGSLRLSCAASGSIFWGYAMGWYRQAPGKERELVATIRNRGGSTYYADSVKGRFTISRDNAKNTVYLQMNSLKPEDTAVYYCAARFPHRHYLLYTYDYWGQGTQVTVSS” is “low polyreactivity”; for “QVQLVESGGGLFQAGGSLRLSCAASGFIFGQNAMGWYRQAPGKERELVAAIDWTGGRTYYADSVKGRFTISRDNAKNTVYLQMNSLKPEDTAVYYCAADGVWYADSPYSIHYGYWGQGTQVTVSS” it is “low polyreactivity”.
Consider “QVQLVESVGGLVQAGGSLRLSCAASGRIFFYYGRGWYRQAPGKERELVAAITKRSSSTYYADSVKGRFTISRDNAKNTVYLQMNSLKPEDTAVYYCNAYPYRYVRRMDYWGQGTQVTVSS”, for which the “polyreactivity (PSR sort gate)” value is recorded as “high polyreactivity”.
In the case of “QVQLVESGGGLVQAGGSLRLSCAASGSTLYWYAMGWYRQAPGKERELVAAITSGGNTYYADSVKGRFTISRDNAKNTVYLQMNSLKPEDTAVSYCAVGSFGVSAYSYYYWGQGTQVTVSS”, the “polyreactivity (PSR sort gate)” value is listed as “low polyreactivity”.
The entry for “QVQLVESGGGLVQAGGSLRLICAASGRTFYLYAMGWYRQAPGKERELVASITKSGGSTYYADSVKGRFTISRDNAKNTVYLQMNSLKPEDTAVYYCATDGRWRLAGAFTGKRRTYDYWGQGTQVTVSS” is “low polyreactivity”; for “QVQLVESGGRLVQGGGSLRLSCAASGITFKGYTMGWYRQAPGKERELVATISRGGRTYADSVKGRFTISRDNAKNTVYLQMNSLKPEDSAVYYCAADKYWAQNDYWGQGTQVTVSS” it is “low polyreactivity”; for “QVQLVESGGGLVQAGGSLRLSCADSGFIFATNAMGWYRQAPGKERDFVAAITSGGSTYYADSVKGRFTISRDNAKNTVYLQMNSLKPEDTAVYYCNARTYSRVTRQTYRYRPYDYWGQGTQVSVSS” it is “high polyreactivity”.
The entry for “QVQLVETGGGLVQAGGSLRLSCAASGRTMPYYAMGWYRQAPGKERELVATISSRGGSTYYADSVKGRFTISRDNAKNTVYLQMNSLKPEDTAVYYCAARGNTPRTRRYGYWGQGTQVTVSS” is “high polyreactivity”; for “QVQLVESGGGLVQAGGSLRLSCAASGRIFFTYTMGWYRQAPVNERELVAAITGGGARTYYADSVKVRFTISRDYAKNTVYLQMNSLKPEDSAVYYCAKGWQRIGFYYWGQGTQVTVSS” it is “high polyreactivity”; for “QVQLVESGGGLVQAGGSLRLSCAASGGTFDTYDMGWYRQAPGKERELVAAIRFGDGTTYYADSVKGRFTISRDNAKNTVYLQMNSLKPEDTAVYYCAAVFVWQPQYDQFRYDYWGQGTQVTVSS” it is “low polyreactivity”.
With “QVQLVESGGGLVKAGGSLRLSCAASGRIFGYYAMGLDRQAPGQERELFAAITWSGGRTYYADSVKGRFTISRDNAKNTVYLQMKSLKPEDTAVYYCAAKTLGQQRKFDYWGQGTQVTVSS”, the “polyreactivity (PSR sort gate)” value is reported as “high polyreactivity”.
The entry for “QVQLVESGGGLVQAGGSLRLSCAASGSIFFLYAMGWYRQAPGKEREFVAAITGTADSTYYADSVKGRFTISRDDAKNTVYLQMNSLKPEDTAVYYCATDYWSSVKLDDYWGQGTQVTVSS” is “low polyreactivity”.
The entry for “QVQLVESGGGLVQAGGSLRLSCAASGGIFVRYAMGWYRQAPGKERELVAAISYSGGSTYYADSVKGRFTISRDNAKNTVYLQLNSLKPEDTAVYYCAAYVTGRYDWGQVTQVTVSS” is “high polyreactivity”; for “QVQLVESGGGLVQAGGSLRLSCAASGIIFGGNVMGWYRQAPGKERELVAAISGGGGRTHYADSVKGRFTISRDNAKNTVYLQMNSLKPEDTAVYYCAVVTRYRYDYWGQGTQVTVSS” it is “high polyreactivity”.
In the case of “EVQLVESGGGLVQAGGSLRLSFAASGFTFRYYAMGWYRQAPGKERELVASITGGGRTYYADSVKGRFTISRDNAKNTVYLQMNSLKPEDTAVYYCATLLAYRLGSGYDSWGQGTQVTVSS”, the “polyreactivity (PSR sort gate)” value is reported as “high polyreactivity”.
The same measure for “QVQLVESGGGLVQAGGSLRLSCAASGFTLVYYVMGWYRQAPGKERELVARISRGGSTNYADSVKGRFTISRDNAKNTVYLQMNSLKPEDTAVYYCAARRTSWQGFNYWGQGTQVTVAS”: “high polyreactivity”.
The same measure for “QVQLVESGGGLVQAGGSLRLSCAASGNTFYRNAMGWYRQAPGKERELVAGISNGGSTNYADSVKGRFTISRDNAKNTVYLQMNSLKPEDTAVYYCAKDEPKVSRAFDYWGQGTQVTVSS”: “low polyreactivity”.
The same measure for “QVQLVESGGGLVQAGGSLRLSCAASGFIFGPNAMGWYRQAPGKERELVAAITLSGGSTYYADSVKGRFTISRDNAKNTVYLQMNSLKPEDTAVYYCATTYYHNYLLYGYWGQGTQVTVSS”: “low polyreactivity”.
As for “QVQLVESGGFLVQAAGSLRLSCDASGFTFSSYSMGWYRQAPGKERELVAAISTRGGSTYYADSVKGRFTISLDNAMNSVYLLLNSLKPEDTADYYCATGGRGGRRYDYWGQGTQVTVSS”, the “polyreactivity (PSR sort gate)” value was “low polyreactivity”.
The same measure for “QVQLVESGGGLVQAGGRLRLSCASSGITFWTYAMGWYRQAPGKERELVAAISKSGGSTYYADSVKGRYTISRDNAKNNVYFELNSLKPEDTAVYYCAAKGLRYRDIDYDYWGQGTQVTVSS”: “low polyreactivity”; for “QVQLVESGGGLVQAGGSLRLSCAASGSIFSQNAMGWYRQAPGKERELVAAITSSGGNTYADSVKGRFTISRDNAKNTVYLQMNRLKPEDTAVYYCAAGHLVILNRSEYYYWGQGSQVTVSS”: “low polyreactivity”.
The same measure for “QVQLVESGGGLVQAGGSLRLSCAASGFNITYVMGWYRQAPGKERELVAVITNGGSTYYADSVKGRFTISRDNAMNTVYLLMNSLKPEDTAVYYCAARARFRYDSYYYWGQGTQLTVSS”: “high polyreactivity”; for “QVQLVESGGGLVQAGGSLRLSCAASGSIFRKKAMGWYRQAPGKERELVAAITGTGRTTYADSVKGRFTISRDNAKNTVYLQMNSLKPEDTAVYYCAAEYYYRYSYTNEGDYWGQGTQVTVSS”: “low polyreactivity”; for “QVQHVESVGGLVQAGGSLRLICAASGGTIDTYAIGWYRQAPGKERELVAGIDWSGGSTYYADSVKGRFTISRDNSKNTVYLQMNSLKPEDTAVYYCAADYYYPSQMDYWGQGTQVTVSS”: “low polyreactivity”.
The entry for “QVQLVESGGGLVQAGGSLRLSSAASGRIFYKYVMGWYRQATGKERELVATITSGGSTYYADSVKGRFTISRDNAKNTVYLQMNSLKPEDTAVFYCAARKYYSRAYDYWGQGTQVTVSS” is “high polyreactivity”.
